Here are results for four molecules from patent US20140366224A1 (CONSEJO SUPERIOR DE INVESTIGACIONES CIENTIFICAS, published 2014).

Test [1] concerns the target T1, IYO fused to split YFP (nYFP or cYFP) (Arabidopsis thaliana, UniProt Q8GYU3 1-1465).
T1 construct: BiFC construct expressed in Nicotiana benthamiana leaf epidermal cells; The position of the YFP half varied between combinations, so the order of the parts is not fixed; also called split YFP fused to IYO; not shown: nYFP or cYFP half of split YFP, fused at the N- or C-terminus (different combinations were used)
T1 sequence: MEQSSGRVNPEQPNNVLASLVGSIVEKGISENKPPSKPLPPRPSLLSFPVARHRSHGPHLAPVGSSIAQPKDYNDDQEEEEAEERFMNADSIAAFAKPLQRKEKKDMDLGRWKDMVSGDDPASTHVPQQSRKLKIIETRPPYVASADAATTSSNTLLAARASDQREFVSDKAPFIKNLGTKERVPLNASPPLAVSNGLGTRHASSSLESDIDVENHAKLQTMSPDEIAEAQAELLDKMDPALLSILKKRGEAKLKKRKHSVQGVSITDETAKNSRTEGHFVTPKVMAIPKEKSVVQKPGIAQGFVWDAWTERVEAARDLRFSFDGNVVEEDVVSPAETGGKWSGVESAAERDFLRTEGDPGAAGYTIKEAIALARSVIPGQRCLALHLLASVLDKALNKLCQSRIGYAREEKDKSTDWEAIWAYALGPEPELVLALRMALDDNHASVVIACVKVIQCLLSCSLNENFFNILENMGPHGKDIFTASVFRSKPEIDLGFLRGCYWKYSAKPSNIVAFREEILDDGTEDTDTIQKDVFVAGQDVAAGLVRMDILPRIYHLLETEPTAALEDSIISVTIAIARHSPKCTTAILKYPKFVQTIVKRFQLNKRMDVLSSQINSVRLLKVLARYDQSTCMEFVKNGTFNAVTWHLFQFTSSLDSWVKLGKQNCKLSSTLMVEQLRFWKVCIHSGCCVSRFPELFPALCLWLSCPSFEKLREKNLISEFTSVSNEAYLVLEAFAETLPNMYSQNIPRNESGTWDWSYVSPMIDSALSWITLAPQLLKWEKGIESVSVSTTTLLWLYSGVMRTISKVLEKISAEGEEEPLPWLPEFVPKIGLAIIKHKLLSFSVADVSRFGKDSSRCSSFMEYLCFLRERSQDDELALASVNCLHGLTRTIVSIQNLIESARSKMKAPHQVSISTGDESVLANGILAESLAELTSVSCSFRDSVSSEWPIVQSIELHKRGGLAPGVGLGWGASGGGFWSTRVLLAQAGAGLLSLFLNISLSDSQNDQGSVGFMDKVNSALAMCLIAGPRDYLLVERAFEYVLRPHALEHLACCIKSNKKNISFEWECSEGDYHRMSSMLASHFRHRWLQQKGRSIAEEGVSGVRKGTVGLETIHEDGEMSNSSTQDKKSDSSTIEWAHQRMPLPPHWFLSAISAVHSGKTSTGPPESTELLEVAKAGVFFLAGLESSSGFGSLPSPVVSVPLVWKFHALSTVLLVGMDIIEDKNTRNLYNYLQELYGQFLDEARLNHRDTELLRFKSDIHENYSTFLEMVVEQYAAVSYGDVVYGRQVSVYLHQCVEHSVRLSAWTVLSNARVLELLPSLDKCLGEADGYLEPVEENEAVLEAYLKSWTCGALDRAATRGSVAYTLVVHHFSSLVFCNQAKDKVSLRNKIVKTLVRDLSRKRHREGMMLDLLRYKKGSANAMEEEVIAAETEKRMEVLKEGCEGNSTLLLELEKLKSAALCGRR
Briefly: BiFC context, truncated AtRTR1. An excerpt: (§1) Applicants tested for the in vivo interaction between IYO and AtRTR1 through a bimolecular fluorescence complementation assay in epidermal cells from Nicotiana benthamiana leaves.

For test [2], the target named is T1, IYO fused to split YFP (nYFP or cYFP). Kind of test: BiFC, split YFP in Nicotiana benthamiana leaves.
Excerpt: Although the bulk of AtRTR1 is present in the cytosol, we found high levels of nuclear fluorescence reconstitution when split YFP fused to IYO and AtRTR1 was expressed in Nicotiana benthamiana leaves (FIGS. 12-14). This confirms that IYO and AtRTR1 interact physically, and that they do so in the nucleus. […] To test this, Applicants analyzed the subcellular distribution of AtRTR1 in the presence or absence of co-expressed IYO. These experiments confirmed that co-expressed IYO increases the accumulation of AtRTR1 in the nucleus.
as §1

Test [3] has the same target. Kind of test: BiFC (split YFP) in Nicotiana benthamiana leaf cells.
Excerpt: as §1

B1: C-terminal half of AtRTR1 (aa 305-735) (other, not shown: large carriers)
chain: EMGLASSAMMSDGYGVEYSVSKQPQCSMEDSLSCKLKGDLQTLDGKNTLSGSSSGSNTKGSKTKPEKSRKKIISVEYHANSYEDGEEILAAESYERHKAQDVCSSSEIVTKSCLKISGSKKLSRSVTWADQNDGRGDLCEVRNNDNAAGPSLSSNDIEDVNSLSRLALAEALATALSQAAEAVSSGNSDASDATAKAGIILLPSTHQLDEEVTEEHSEEEMTEEEPTLLKWPNKPGIPDSDLFDRDQSWFDGPPEGFNLTLSNFAVMWDSLFGWVSSSSLAYIYGKEESAHEEFLLVNGKEYPRRIIMVDGLSSEIKQTIAGCLARALPRVVTHLRLPIAISELEKGLGSLLETMSLTGAVPSFRVKEWLVIVLLFLDALSVSRIPRIAPYISNRDKILEGSGIGNEEYETMKDILLPLGRVPQFATRSGA
notes: also called truncated C-terminal half of AtRTR1; C-terminal half of RTR1
Consider B1, for which the binding result in test [1] is recorded as “binds”.

B2: AtRTR1 (At5g26760) full-length, fused to split YFP (nYFP or cYFP) (other)
chain: MAKDNEAIAINDAVHKLQLYMLENTTDQNQLFAARKLMSRSDYEDVVTERAIAKLCGYTLCQRFLPSDVSRRGKYRISLKDHKVYDLQETSKFCSAGCLIDSKTFSGSLQEARTLEFDSVKLNEILDLFGDSLEVKGSLDVNKDLDLSKLMIKENFGVRGEELSLEKWMGPSNAVEGYVPFDRSKSSNDSKATTQSNQEKHEMDFTSTVIMPDVNSVSKLPPQTKQASTVVESVDGKGKTVLKEQTVVPPTKKVSRFRREKEKEKKTFGVDGMGCAQEKTTVLPRKILSFCNEIEKDFKNFGFDEMGLASSAMMSDGYGVEYSVSKQPQCSMEDSLSCKLKGDLQTLDGKNTLSGSSSGSNTKGSKTKPEKSRKKIISVEYHANSYEDGEEILAAESYERHKAQDVCSSSEIVTKSCLKISGSKKLSRSVTWADQNDGRGDLCEVRNNDNAAGPSLSSNDIEDVNSLSRLALAEALATALSQAAEAVSSGNSDASDATAKAGIILLPSTHQLDEEVTEEHSEEEMTEEEPTLLKWPNKPGIPDSDLFDRDQSWFDGPPEGFNLTLSNFAVMWDSLFGWVSSSSLAYIYGKEESAHEEFLLVNGKEYPRRIIMVDGLSSEIKQTIAGCLARALPRVVTHLRLPIAISELEKGLGSLLETMSLTGAVPSFRVKEWLVIVLLFLDALSVSRIPRIAPYISNRDKILEGSGIGNEEYETMKDILLPLGRVPQFATRSGA
notes: Wild-type full-length AtRTR1 in BiFC in Nicotiana benthamiana leaves; The position of the YFP half varied; also called split YFP fused to AtRTR1; not shown: nYFP or cYFP half of split YFP, fused at the N- or C-terminus (different combinations were used)
In the case of B2, the binding result in test [2] is listed as “binds”.

B3: full-length AtRTR1 C56A/C61A (other, not shown: large carriers)
chain: MAKDNEAIAINDAVHKLQLYMLENTTDQNQLFAARKLMSRSDYEDVVTERAIAKLAGYTLAQRFLPSDVSRRGKYRISLKDHKVYDLQETSKFCSAGCLIDSKTFSGSLQEARTLEFDSVKLNEILDLFGDSLEVKGSLDVNKDLDLSKLMIKENFGVRGEELSLEKWMGPSNAVEGYVPFDRSKSSNDSKATTQSNQEKHEMDFTSTVIMPDVNSVSKLPPQTKQASTVVESVDGKGKTVLKEQTVVPPTKKVSRFRREKEKEKKTFGVDGMGCAQEKTTVLPRKILSFCNEIEKDFKNFGFDEMGLASSAMMSDGYGVEYSVSKQPQCSMEDSLSCKLKGDLQTLDGKNTLSGSSSGSNTKGSKTKPEKSRKKIISVEYHANSYEDGEEILAAESYERHKAQDVCSSSEIVTKSCLKISGSKKLSRSVTWADQNDGRGDLCEVRNNDNAAGPSLSSNDIEDVNSLSRLALAEALATALSQAAEAVSSGNSDASDATAKAGIILLPSTHQLDEEVTEEHSEEEMTEEEPTLLKWPNKPGIPDSDLFDRDQSWFDGPPEGFNLTLSNFAVMWDSLFGWVSSSSLAYIYGKEESAHEEFLLVNGKEYPRRIIMVDGLSSEIKQTIAGCLARALPRVVTHLRLPIAISELEKGLGSLLETMSLTGAVPSFRVKEWLVIVLLFLDALSVSRIPRIAPYISNRDKILEGSGIGNEEYETMKDILLPLGRVPQFATRSGA
notes: The putative zinc-coordinating cysteines are substituted by alanine
Regarding B3, the binding result in test [3] is listed as “no binding”.

B4: full-length AtRTR1 C94A/C98A (other, not shown: large carriers)
chain: MAKDNEAIAINDAVHKLQLYMLENTTDQNQLFAARKLMSRSDYEDVVTERAIAKLCGYTLCQRFLPSDVSRRGKYRISLKDHKVYDLQETSKFASAGALIDSKTFSGSLQEARTLEFDSVKLNEILDLFGDSLEVKGSLDVNKDLDLSKLMIKENFGVRGEELSLEKWMGPSNAVEGYVPFDRSKSSNDSKATTQSNQEKHEMDFTSTVIMPDVNSVSKLPPQTKQASTVVESVDGKGKTVLKEQTVVPPTKKVSRFRREKEKEKKTFGVDGMGCAQEKTTVLPRKILSFCNEIEKDFKNFGFDEMGLASSAMMSDGYGVEYSVSKQPQCSMEDSLSCKLKGDLQTLDGKNTLSGSSSGSNTKGSKTKPEKSRKKIISVEYHANSYEDGEEILAAESYERHKAQDVCSSSEIVTKSCLKISGSKKLSRSVTWADQNDGRGDLCEVRNNDNAAGPSLSSNDIEDVNSLSRLALAEALATALSQAAEAVSSGNSDASDATAKAGIILLPSTHQLDEEVTEEHSEEEMTEEEPTLLKWPNKPGIPDSDLFDRDQSWFDGPPEGFNLTLSNFAVMWDSLFGWVSSSSLAYIYGKEESAHEEFLLVNGKEYPRRIIMVDGLSSEIKQTIAGCLARALPRVVTHLRLPIAISELEKGLGSLLETMSLTGAVPSFRVKEWLVIVLLFLDALSVSRIPRIAPYISNRDKILEGSGIGNEEYETMKDILLPLGRVPQFATRSGA
notes: as for B3
B4: in test [3], the binding result is listed as “no binding”.
